Reference: the nanobody polyreactivity screen of Harvey et al. (2022)

Experiment: yeast display, Sf9 membrane polyspecificity reagent, FACS + sequencing; frameworks hold sequencing errors
In short: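 Nanobodies came from a synthetic yeast display library in Saccharomyces cerevisiae BJ5465, induced with galactose for 36–48 hours and stained for 1 hour at 4 °C with 10% biotinylated, detergent-solubilized Sf9 membrane reagent. Cells were enriched on streptavidin microbeads and then FACS-sorted, with low and high (top ~1%) gates set on anti-HA fluorescence for expression and streptavidin fluorescence for reagent binding. Each polyreactivity label reflects the gate a clone came from. Genes were amplified by colony PCR, sequenced by MiSeq 2 × 250 and filtered by CDR length.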

| Sequence | polyreactivity (PSR sort gate) |
| --- | --- |
| QVQLVESGGGLVQAGGSLRLSCAASGSIFWSYAMGWYRQAPGKERELVAAINWSGGRTYYADSVKGRFTISRDNAKNTVYLQMNSLKPEDTAVYYCNAPVHTAQGDEYDYWGQGTQVTVSS | high polyreactivity |
| QVQLVESGGGLVQAGGSLRLSCAASGSIFHTYLMGWYRQAPGKERELVASSTRSGGSTYYADSVKGRFTISRDNAKNTVYLQMNSLKPEDTAVYYCAATYRTANHRYYYWGQGTQVTVSS | high polyreactivity |
| QVQLVESGGGLVQAGGSHRLSCAASGFIFRWYAMGWYRQAPGKERELVAAISRSGDSTYYADSVKGRFTISRDNAKNTVYLQMNSLKPDDTAVYYCAADDRYYTYGYDYWGQGTQVTVSS | low polyreactivity |
| QVQLVDSGGGLVQAGGSLRLSCAASGRTFGVYAMGWYRQAPGKERELVAVINRSGGSTYYADSVKGRFTISRDNAKNTVYLQMNSLKPEDTAVYYCAARVTSHMYYWGQGTQVTVSS | high polyreactivity |
| QVQLVESGGGLVQAGGSLRLSCAACGSIFNYYTMGWYRTAPGKERELVADISWSGGSTYYADSVKGRFTISRDNAKNTVYLQMNSLKPEETAVYYCAADFGLFPYVGTGYYYWGQGTQVTVSS | low polyreactivity |
| QVQLVESGGGLVQAGGSLRLSCAASGSTFDHYAMGWYRPAPGKERELVAAISYSGSTTDYADSVKGRFTISRDNAKNTVYLQMNSLKPVDTAVYYFAASGDVIQSPMDYWGQGTQVTVSS | low polyreactivity |
| QVQLVESGGGLVQAGGSLRIRCAASGGIFPPNAMGWYRHPPGKERELVASISSDGSTNYADSVKGRFTISRDNAKNNVILQMNSLKPEDTAVFYCNATHEAFELDYWGQGTQVNVSS | low polyreactivity |
| QVQLVESGGGLVQAGGSLRLSCAASGRTFRWNAIGWYRQAPGKERELVASISSGGRTNYADSVKVRFTISRDNEKNTVYLQMNSLKPEDTAVYYCAKRVSWPQLYDYWGQGTQVTVSS | high polyreactivity |
| QVQLVESGGGLVQAGGSLRLSCAASGSIFRYYAMGWYRQAPGKERELVATISSGGRTYYADSVKGRFTISRDNAKNTVYLQMNSQKPEDTAVYYCAARYGTTRYGFDYWGQGTQVTVSS | high polyreactivity |
| HVQLKESGGGLVQAGGSLRLSCAASGSIFKVVDMGLYRKAPAKEREFVANIGEGCNTYYADSVKGRFTISRDNAKNTVYLQMNSLKPEDTAVYFYAFVLGTSYRYTYWGQGTLVTVSS | low polyreactivity |
| QVQHVESGGGLVQAGGSLRLSCAASGSTFGRNAMGWYRQAPGKERELVAAINWSDGSTHYADSVKGRFTISRDNAKNTVYLQMNSLKPEDTAVYYCGADAWSWPVDYNYWGQGTQVTVSS | low polyreactivity |
| QVQLVESGGGLVQAGGSLRLSCGAYGLTFTYNTMGWYRPAPGKERELVAAITSSGGRTYYADSVKGRFTISRDHAKNTVYFQMNSLKPEDTAVYYCAKTKYYPKRDYYWGQGTLVTVSS | high polyreactivity |
| QVPLVESGVGLVQAGGSLRLSCAASGYTFYSYAMGWYRQAPGKEREFVAAIRTGGGTNYADSVKGRFTISRDNAKNTVYLQMNSLKPEDTAVYYCAARYYSQKSYIGFRPGYEYWGQGTQVTVSS | low polyreactivity |
| QVQLVESGGGLVQAGGSLRLSCAASGIIFYVNDMGWYRQAPGKERELVADISGGTSTNYADSVKGRFTISRDNAKNTVYLQMNSLKPEDTAVYYCATAFIVPFPGSDYWGQGTQVTVSS | low polyreactivity |
| QVQLVESGGGLVQAGGSLRLSSAASGRTSYVYAMGWYRQEPGKERELVAVITRRGGSTYYADSVKGRFTISRDNAKNTVYLQMNSLKPEDTAVYYCNAAYTTWRRGPMNYWGQGTQVTVSS | high polyreactivity |
| QVQLVESGGGLVQAGGSLRLSSAASGRIFRRNTMGWYRQAPGKERELVAAITSSGGSTYADSVKGRFTISRDNAKNTVYLQMNSLKPEDTAVYYCATYVAYHRGYRTYDHWGQGTQVTVSS | low polyreactivity |
